Results as given in publication PMC5043372, “A pre-metazoan origin of the CRK gene family and co-opted signaling network” (Scientific Reports, 2016).
Non-standard residues stand in square brackets, D forms with d. No end group written: not given here. pY = N[C@@H](Cc1ccc(OP(=O)(O)O)cc1)C(=O)O

T1: SH2 domain of Monosiga brevicollis crka1 (Monosiga brevicollis, UniProt A0A1C9VNP8 1-97)
T1 construct: seven additional amino acids left at the N-terminus after His-tag removal; For the NMR structure the same domain was made with the E. coli cell-free protein synthesis system; also called Mb-crka1 SH2; crka1 SH2 domain
T1 sequence: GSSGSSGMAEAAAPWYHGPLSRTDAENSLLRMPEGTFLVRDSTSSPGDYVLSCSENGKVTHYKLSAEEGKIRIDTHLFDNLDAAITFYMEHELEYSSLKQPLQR


Target: T1, SH2 domain of Monosiga brevicollis crka1
Assay: ITC; peptide (400 uM) injected into the cell holding the SH2 domain (40 uM); 25 °C; 25 mM HEPES, pH7, 100 mM NaCl; MicroCal Auto-iTC200
Conditions: both partners purified

binding result	Binder
binds	EM[pY]DVPRS (together with DM-pYDVP-RN it overlaps 5 of the 10 YxxP motifs; source: synthetic peptide, bought: Toray Research Center) [phosphopeptide EM-pYDVP-RS of S. rosetta PTSG_05573]
binds	DM[pY]DVPRN (together with EM-pYDVP-RS it overlaps 5 of the 10 YxxP motifs; source: synthetic peptide, bought: Toray Research Center) [phosphopeptide DM-pYDVP-RN of S. rosetta PTSG_05573]
